The target in the series is Nedd8-AMC (Boston Biochem), Q15843.

The record followed here is patent US20070071724.

Nedd8-AMC (Boston Biochem), Q15843, sequence (Q15843 whole entry, looked up): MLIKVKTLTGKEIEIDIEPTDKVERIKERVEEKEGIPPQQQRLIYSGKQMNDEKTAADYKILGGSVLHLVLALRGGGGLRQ

B1: Uch-L3 (Boston Biochem) (protein)
chain: MEGQRWLPLEANPEVTNQFLKQLGLHPNWQFVDVYGMDPELLSMVPRPVCAVLLLFPITEKYEVFRTEEEEKIKSQGQDVTSSVYFMKQTISNACGTIGLIHAIANNKDKMHFESGSTLKKFLEESVSMSPEERARYLENYDAIRVTHETSAHEGQTEAPSIDEKVDLHFIALVHVDGHLYELDGRKPFPINHGETSDETLLEDAIEVCKKFMERDPDELRFNAIALSAA
For the protein B1, the “hydrolysis of Nedd8-AMC” value is “there was no reduction in hydrolysis of Nedd8-AMC, a ubiquitin-like protein that binds to and is cleaved by Uch-L3, when 20 nM Uch-L3 was incubated with 5 µM LDN”.
